Data as given in US20260069728A1, “MULTI-TARGETING COMPOUND AND USE THEREOF” (Chengdu Shetai Medical Technology Co., Ltd., priority 2023, published 2026).
*1 amine or outer side, *2 acyl side, *3 side chain or, on linkers, in order; H or OH if unused. Where a SMILES comes first, the peptide text is derived from it. Bridges are numbered along the chain shown (N, C = ends). [ ]: non-standard residue; d: D form. The star is where a group is joined. X1 = N#C[C@@H]1CC(F)(F)CN1C(=O)CNC(=O)c1ccnc2ccc(OCCCN3CCN(*)CC3)cc12; DOTA = O=C(O)CN1CCN(CC(=O)O)CCN(CC(=O)*)CCN(CC(=O)O)CC1; 2Nal = N[C@@H](Cc1ccc2ccccc2c1)C(=O)O; Cit = NC(=O)NCCC[C@H](N)C(=O)O; Suc = O=C(CCC(=O)[*:2])[*:1]; AEEA = NCCOCCOCC(=O)O

Assays:
[1] = Competitive experiment of radioligand against endogenous free amino acids (histidine, cysteine); assay type: physicochemical; conditions: 37° C., 2 hours
Procedure: (§1) To an EP tube containing 150 μL of PBS buffer, 150 μL of H2O, and 50 μL of ^68Ga-SDYD01 was added 50 μL of cysteine hydrochloride solution (10 mM) or histidine solution (10 mM). The mixture was vortexed and incubated at 37° C. for 2 hours, after which samples were taken for radio-HPLC analysis.
This study utilized different concentrations of histidine and cysteine solutions to investigate whether histidine (or cysteine) competes with ^68Ga-SDYD01 for metal chelation.
To an EP tube containing 150 μL of PBS buffer, 150 μL of H2O, and 50 μL of ^68Ga-SDYD02 was added 50 μL of cysteine hydrochloride solution (10 mM) or histidine solution (10 mM). The mixture was vortexed and incubated at 37° C. for 2 hours, after which samples were taken for radio-HPLC analysis.
This study utilized different concentrations of histidine and cysteine solutions to investigate whether histidine (or cysteine) competes with ^68Ga-SDYD02 for metal chelation.
as §1, with “^68Ga-SDYD05” for “^68Ga-SDYD01”, “analysis. This study utilized different concentrations of histidine and cysteine solutions to investigate whether histidine (or cysteine) competes with ^68Ga-SDYD05 for metal chelation.” for “analysis.”
as §1, with “^68Ga-SDYD06” for “^68Ga-SDYD01”, “analysis. This study utilized different concentrations of histidine and cysteine solutions to investigate whether histidine (or cysteine) competes with ^68Ga-SDYD06 for metal chelation.” for “analysis.”

[2] = tested on: SUM149PT human breast cancer cell line; test: Cell uptake and inhibition assay, SUM149PT; assay type: cell-based
Procedure: The cell lines involved in the cell experiments in the test examples include: SUM149PT human breast cancer cell line, HUTU-80 human duodenal adenocarcinoma cell line, and U-118 MG human brain astrocytoma/glioblastoma cell line.
SUM149PT: Complete medium was formulated using DMEM high-glucose medium, 10% FBS, and a penicillin-streptomycin solution. The cells were cultured in a constant temperature incubator at 37° C. with 5% CO2. The culture medium was regularly replaced, and the cells were passaged. The culture medium was generally changed every 2 to 3 days. The growth of the tumor cells was observed daily under a microscope, including monitoring cell growth status, checking for adherence, examining cell morphology for any abnormalities, checking for contamination, and observing medium color for any abnormalities. Cells were passaged when they reached 80-90% confluence.
When cell confluence in the culture flask reached 80%, the cells were digested and centrifuged, and the supernatant was removed. An appropriate amount of medium was added to dilute so that each well contained 500 μL of medium for plating. After thorough mixing by pipetting, the cell suspension was seeded into a 24-well plate at a density of 5×10^5 cells per well. The plate was then placed into the incubator for continued growth. The cells were ready for cellular experiments when they reached 80% confluence.
(1) The cell uptake assay established four incubation time points: 15, 30, 60, and 120 minutes, respectively. For each time point, four groups were set up: non-inhibition group, a first single inhibition group (FAP single inhibition), a second single inhibition group (CXCR4/GRPR/αvβ3 single inhibition), and a dual inhibition group (FAP inhibitor+CXCR4/GRPR/αvβ3 inhibitor). Each group at each time point was set up with 3 triplicate wells.
(2) Cells were plated into a 24-well plate according to the cell plating procedure described above.
(3) The original culture medium was removed from the 24-well plate. Then, 400 μL of 100 mg/mL skimmed milk solution was added to each well for blocking for one hour. After removing the skimmed milk solution, each of the wells was washed three times by adding 400 μL of PBS solution. Subsequently, 146 μL of FBS-free medium was added to each well. Next, the non-inhibition group received 4 μL of cold PBS per well, while the first single inhibition group, the second single inhibition group, and the dual inhibition group received the following additions per well according to Table 3: 2 μL of non-radiolabeled first single inhibitor solution and 2 μL of cold PBS: 2 μL of non-radiolabeled second single inhibitor solution and 2 μL of cold PBS; 2 μL of non-radiolabeled first single inhibitor solution (10 mM) and 2 μL of non-radiolabeled second single inhibitor solution (10 mM). The plate was incubated at room temperature for one hour.
(4) The ^68Ga- and ^177Lu-labeled radioactive ligands were formulated by adding FBS-free medium to achieve a radioligand system concentration of 20 nM. Then, 50 μL of this radioligand system was added to each well. Each group was incubated according to the designated time points: 15, 30, 60, and 120 minutes.
(5) After the incubation was complete, the supernatant was removed, and the wells were washed three times with 400 μL of PBS solution. Then, 200 μL of 1 M NaOH solution was added to each well for cell lysis. […] Each well was then washed once with 400 μL of PBS solution, and this wash solution was also added to the corresponding radioimmunoassay tubes.
(6) The radioactivity in the cells was measured using a γ counter. A bar graph was plotted using GraphPad Prism software. The inhibition rate for each inhibition group was calculated as follows: Inhibition Rate (%)=(1−[Radioactive Count of the Inhibition Group]/[Radioactive Count of the Non-inhibition Group])×100%. […]

**Q.** With `N#C[C@@H]1CC(F)(F)CN1C(=O)CNC(=O)c1ccnc2ccc(OCCCN3CCN(C(=O)CCC(=O)N[C@@H](CCCCNC(=O)CN4CCN(CC(=O)O)CCN(CC(=O)O)CCN(CC(=O)O)CC4)C(=O)NCCOCCOCC(=O)NCCOCCOCC(=O)N[C@@H](CCCNC(=N)N)C(=O)N[C@@H](CCCNC(=N)N)C(=O)N[C@@H](Cc4ccc5ccccc5c4)C(=O)N[C@H]4CSSC[C@@H](C(=O)N[C@@H](CCCNC(=N)N)C(N)=O)NC(=O)[C@H](CCCNC(N)=O)NC(=O)[C@H](CCCNC(=N)N)NC(=O)[C@H](Cc5ccc(O)cc5)NC(=O)[C@@H]5CCCN5C(=O)[C@H](CCCCN)NC(=O)[C@H](CCCCN)NC(=O)[C@H](CCCNC(N)=O)NC(=O)[C@H](Cc5ccc(O)cc5)NC4=O)CC3)cc12` [^68Ga-SDYD01, metal not drawn] ({X1-Suc}-K(DOTA)[AEEA][AEEA]RR[2Nal]CY[Cit]KKPYR[Cit]CR-NH2; disulfide 7-16) as the compound, how does the “competitive chelation in the presence of histidine and cysteine (in words)” value [1] read?
**A.** The value was “did not undergo competitive chelation”.

**Q.** What about the “radiochemical purity after incubation with cysteine” value ([1]; cysteine hydrochloride solution (10 mM)) of the same compound?
**A.** The value was 93%.

**Q.** What about the “radiochemical purity after incubation with histidine” value ([1]; histidine solution (10 mM)) of the same compound?
**A.** Its value is 93%.

**Q.** And the “cell uptake, comparison of non-inhibition, FAP single, CXCR4 single and dual inhibition groups (in words)” value ([2]; FAPI-04 and T140 as inhibitors)?
**A.** Its value is “dual inhibition group exhibited the lowest uptake”.

**Q.** And the “cell uptake over incubation time (in words)” value ([2]; non-inhibition group, 15-120 minutes)?
**A.** Its value is “slowly increased and reached a plateau from 30 to 120 minutes”.
